This assay concerns the target RSV line 19 F protein with I557V, as expressed by vaccine candidate OE4 (respiratory syncytial virus strain line 19) (UniProt P12568). The experiment in a line: MPE8 binding to virus stocks kept at 4 C over 8 days.

In turn, Pre-F-specific mAb MPE8 (antibody) registered a pre-F antigen level (MPE8 binding) relative to A2 above 2 fold.

These data come from patent US20180333477A1.
